T1: OTC (E. coli ornithine transcarbamoylase, argI) (Escherichia coli, UniProt P04391)
T1 construct: full length, uncleaved 6xHis tag, pCA24N ASKA clone, expressed in BL21(DE3) Tuner; homotrimer of 333-residue subunits
T1 sequence (P04391 2-334): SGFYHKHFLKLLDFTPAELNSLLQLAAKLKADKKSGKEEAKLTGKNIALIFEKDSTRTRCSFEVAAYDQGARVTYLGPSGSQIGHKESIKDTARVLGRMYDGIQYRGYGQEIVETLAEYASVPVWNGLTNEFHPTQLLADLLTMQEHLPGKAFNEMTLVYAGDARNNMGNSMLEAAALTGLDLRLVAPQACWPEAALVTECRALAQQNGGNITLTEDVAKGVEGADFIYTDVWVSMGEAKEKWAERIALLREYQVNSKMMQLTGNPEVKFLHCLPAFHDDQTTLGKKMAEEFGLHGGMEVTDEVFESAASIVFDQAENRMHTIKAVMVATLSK

B1: OTC (E. coli ornithine transcarbamoylase, argI) (Escherichia coli K-12; H273L) (protein)
chain: SGFYHKHFLKLLDFTPAELNSLLQLAAKLKADKKSGKEEAKLTGKNIALIFEKDSTRTRCSFEVAAYDQGARVTYLGPSGSQIGHKESIKDTARVLGRMYDGIQYRGYGQEIVETLAEYASVPVWNGLTNEFHPTQLLADLLTMQEHLPGKAFNEMTLVYAGDARNNMGNSMLEAAALTGLDLRLVAPQACWPEAALVTECRALAQQNGGNITLTEDVAKGVEGADFIYTDVWVSMGEAKEKWAERIALLREYQVNSKMMQLTGNPEVKFLLCLPAFHDDQTTLGKKMAEEFGLHGGMEVTDEVFESAASIVFDQAENRMHTIKAVMVATLSK
notes: full length, uncleaved 6xHis tag, pCA24N ASKA clone, expressed in BL21(DE3) Tuner; homotrimer of 333-residue subunits
B2: OTC (E. coli ornithine transcarbamoylase, argI) (Escherichia coli K-12; R58A) (protein)
chain: SGFYHKHFLKLLDFTPAELNSLLQLAAKLKADKKSGKEEAKLTGKNIALIFEKDSTATRCSFEVAAYDQGARVTYLGPSGSQIGHKESIKDTARVLGRMYDGIQYRGYGQEIVETLAEYASVPVWNGLTNEFHPTQLLADLLTMQEHLPGKAFNEMTLVYAGDARNNMGNSMLEAAALTGLDLRLVAPQACWPEAALVTECRALAQQNGGNITLTEDVAKGVEGADFIYTDVWVSMGEAKEKWAERIALLREYQVNSKMMQLTGNPEVKFLHCLPAFHDDQTTLGKKMAEEFGLHGGMEVTDEVFESAASIVFDQAENRMHTIKAVMVATLSK
notes: as for B1
B3: Escherichia coli ornithine transcarbamoylase (OTC) variant Y229S, His-tagged (enzyme, E. coli)
chain: SGFYHKHFLKLLDFTPAELNSLLQLAAKLKADKKSGKEEAKLTGKNIALIFEKDSTRTRCSFEVAAYDQGARVTYLGPSGSQIGHKESIKDTARVLGRMYDGIQYRGYGQEIVETLAEYASVPVWNGLTNEFHPTQLLADLLTMQEHLPGKAFNEMTLVYAGDARNNMGNSMLEAAALTGLDLRLVAPQACWPEAALVTECRALAQQNGGNITLTEDVAKGVEGADFISTDVWVSMGEAKEKWAERIALLREYQVNSKMMQLTGNPEVKFLHCLPAFHDDQTTLGKKMAEEFGLHGGMEVTDEVFESAASIVFDQAENRMHTIKAVMVATLSK
notes: Anabolic ornithine transcarbamoylase of E. coli, argI gene, 333-residue subunit; Made by site-directed mutagenesis of the ASKA pCA24N plasmid; 6x-His tag not cleaved; source: E. coli BL21 (DE3) Tuner, purified (HisTrap FF, Superdex 200 SEC)
B4: Escherichia coli ornithine transcarbamoylase (OTC) variant D231A, His-tagged (enzyme, E. coli)
chain: SGFYHKHFLKLLDFTPAELNSLLQLAAKLKADKKSGKEEAKLTGKNIALIFEKDSTRTRCSFEVAAYDQGARVTYLGPSGSQIGHKESIKDTARVLGRMYDGIQYRGYGQEIVETLAEYASVPVWNGLTNEFHPTQLLADLLTMQEHLPGKAFNEMTLVYAGDARNNMGNSMLEAAALTGLDLRLVAPQACWPEAALVTECRALAQQNGGNITLTEDVAKGVEGADFIYTAVWVSMGEAKEKWAERIALLREYQVNSKMMQLTGNPEVKFLHCLPAFHDDQTTLGKKMAEEFGLHGGMEVTDEVFESAASIVFDQAENRMHTIKAVMVATLSK
notes: as for B3
B5: OTC (E. coli ornithine transcarbamoylase, argI) (Escherichia coli K-12; D141N) (protein)
chain: SGFYHKHFLKLLDFTPAELNSLLQLAAKLKADKKSGKEEAKLTGKNIALIFEKDSTRTRCSFEVAAYDQGARVTYLGPSGSQIGHKESIKDTARVLGRMYDGIQYRGYGQEIVETLAEYASVPVWNGLTNEFHPTQLLANLLTMQEHLPGKAFNEMTLVYAGDARNNMGNSMLEAAALTGLDLRLVAPQACWPEAALVTECRALAQQNGGNITLTEDVAKGVEGADFIYTDVWVSMGEAKEKWAERIALLREYQVNSKMMQLTGNPEVKFLHCLPAFHDDQTTLGKKMAEEFGLHGGMEVTDEVFESAASIVFDQAENRMHTIKAVMVATLSK
notes: as for B1

Tests used:
[1] = target: T1, OTC (E. coli ornithine transcarbamoylase, argI); test: thermal shift (Sypro Orange); format: binding; conditions: absolute Tm, not dTm; 1 mM carbamoyl phosphate, 10 μM enzyme, 50 mM HEPES pH 8, 200 mM NaCl, 2 mM DTT
Description: thermal shift (Sypro Orange) on OTC (E. coli ornithine transcarbamoylase, argI)

[2] = substrate: NC(=O)OP(=O)(O)O; test: purified protein; format: biochemical, Escherichia coli; conditions: 50 mM Tris pH 8.5, 20 °C, 20 mM NaCl
[3] = substrate: NCCC[C@H](N)C(=O)O; test: purified protein; conditions: 50 mM Tris pH 8.5, 20 °C, 20 mM NaCl, carbamoyl phosphate 5 mM
[4] = target: the molecule itself; test: SEC-SAXS; in-line SEC-SAXS on a Superdex 200 5/150 GL column; enzyme at 4.3-5.5 mg/mL; apo state, and after incubation with 5 mM CP or 10 mM ORN; self-association of the enzyme (trimer)
[5] = ornithine 60 mM (variants with ORN KM above 3 mM)

Molecule	enzyme +cp [1]	Km ([2]; ornithine 3 mM)	kcat ([2]; ornithine 3 mM)	kcat/Km ([2]; ornithine 3 mM)	Km [3]	kcat [3]	kcat/Km [3]	binding result [4]	Km [2, 5]	kcat [2, 5]	kcat/Km [2, 5]
NC(=O)OP(=O)(O)O [CP, carbamoyl phosphate]	70 ± 0.5 °C										
B1		930 ± 580 µM	4.2 ± 1.8 s⁻¹	5000 ± 1100 M⁻¹ s⁻¹							
B2		280 ± 27 µM	7.5 ± 1.8 s⁻¹	27000 ± 7300 M⁻¹ s⁻¹	440 ± 92 µM	8.2 s⁻¹	19000 M⁻¹ s⁻¹				
B3								binds			
B4		150 ± 42 µM	0.48 ± 0.1 s⁻¹	3400 ± 1300 M⁻¹ s⁻¹	590 ± 330 µM	0.7 s⁻¹	1400 M⁻¹ s⁻¹	binds			
B5					17000 ± 5900 µM	460 s⁻¹	30000 M⁻¹ s⁻¹		1400 ± 450 µM	360 ± 59 s⁻¹	290000 ± 90000 M⁻¹ s⁻¹

Reference: publication PMC7004355 (PLoS ONE, 2020)
